Source: patent publication EP4647441A1 (dated 2025)

T1: KRAS G12D peptide on HLA-A*11:01 (human)
T1 peptide: VVVGADGVGK

T2: KRAS G12V peptide on HLA-A*11:01 (human)
T2 peptide: VVVGAVGVGK

T3: KRAS G12S peptide on HLA-A*11:01 (human)
T3 peptide: VVVGASGVGK

T4: KRAS G12C peptide on HLA-A*11:01 (human)
T4 peptide: VVVGACGVGK

T5: KRAS G12A peptide on HLA-A*11:01 (human)
T5 peptide: VVVGAAGVGK

B1: TCR1 (TCR, V domains shown)
Valpha: KQEVTQIPAALSVPEGENLVLNCSFTDSAIYNLQWFRQDPGKGLTSLLLIQSSQREQTSGRLNASLDKSSGRSTLYIAASQPGDSATYLCAVNSYSGAGSYQLTFGKGTKLSVIP
Vbeta: EPEVTQTPSHQVTQMGQEVILRCVPISNHLYFYWYRQILGQKVEFLVSFYNNEISEKSEIFDDQFSVERPDGSNFTLKIRSTKLEDSAMYFCASRGGGEQYFGPGTRLTVT
B2: HLA-A*11:01/KRAS G12V-specific TCR1 (TCR)
TCR alpha: KQEVTQIPAALSVPEGENLVLNCSFTDSAIYNLQWFRQDPGKGLTSLLLIQSSQREQTSGRLNASLDKSSGRSTLYIAASQPGDSATYLCAVNSYSGAGSYQLTFGKGTKLSVIPNIQNPDPAVYQLRDSKSSDKSVCLFTDFDSQTNVSQSKDSDVYITDKTVLDMRSMDFKSNSAVAWSNKSDFACANAFNNSIIPEDTFFPSPESSCDVKLVEKSFETDTNLNFQNLSVIGFRILLLKVAGFNLLMTLRLWSS
TCR beta: EPEVTQTPSHQVTQMGQEVILRCVPISNHLYFYWYRQILGQKVEFLVSFYNNEISEKSEIFDDQFSVERPDGSNFTLKIRSTKLEDSAMYFCASRGGGEQYFGPGTRLTVTEDLKNVFPPEVAVFEPSEAEISHTQKATLVCLATGFYPDHVELSWWVNGKEVHSGVSTDPQPLKEQPALNDSRYCLSSRLRVSATFWQNPRNHFRCQVQFYGLSENDEWTQDRAKPVTQIVSAEAWGRADCGFTSESYQQGVLSATILYEILLGKATLYAVLVSALVLMAMVKRKDSRG

Columns and labels:
[1] = target: T1, KRAS G12D peptide on HLA-A*11:01; assay: CD69 by flow cytometry; TCR1-transduced Jurkat cells with K562-A*11:01 loaded with peptide at 10^-11 to 10^-6 M; full-length, on cells
[2] = target: T2, KRAS G12V peptide on HLA-A*11:01; assay: as above
[3] = target: T3, KRAS G12S peptide on HLA-A*11:01; assay: killing
[4] = target: T4, KRAS G12C peptide on HLA-A*11:01; assay: killing
[5] = target: T5, KRAS G12A peptide on HLA-A*11:01; assay: killing
[6] = target: HLA-A*11:01 loaded with KRAS-G12V peptide … (human); assay: cell-based or functional assay
[7] = target: HLA-A*11:01 loaded with KRAS-G12D peptide … (human); assay: cell-based or functional assay

Row | Binder | EC50 of peptide [1] [nM] | EC50 of peptide [2] [nM] | binding result [3] | binding result [4] | binding result [5] | EC50 of CD69 expression of TCR-transduced cells after co-incubation with target cells loaded with graded peptide concentrations [6] [nM] | EC50 of CD69 expression of TCR-transduced cells after co-incubation with target cells loaded with graded peptide concentrations [7] [nM]
1 | B1 | ~77 | ~45 | recognises | recognises | recognises | – | –
2 | B2 | – | – | – | – | – | 45 | 77
